Measurements published in IntAct's records for PubMed 11102519.

B1: Transmembrane 4 L6 family member 1 (Homo sapiens), P30408 (parent)
chain: MCYGKCARCIGHSLVGLALLCIAANILLYFPNGETKYASENHLSRFVWFFSGIVGGGLLMLLPAFVFIGLEQDDCCGCCGHENCGKRCAMLSSVLAALIGIAGSGYCVIVAALGLAEGPLCLDSLGQWNYTFASTEGQYLLDTSTWSECTEPKHIVEWNVSLFSILLALGGIEFILCLIQVINGVLGGICGFCCSHQQQYDC
partner: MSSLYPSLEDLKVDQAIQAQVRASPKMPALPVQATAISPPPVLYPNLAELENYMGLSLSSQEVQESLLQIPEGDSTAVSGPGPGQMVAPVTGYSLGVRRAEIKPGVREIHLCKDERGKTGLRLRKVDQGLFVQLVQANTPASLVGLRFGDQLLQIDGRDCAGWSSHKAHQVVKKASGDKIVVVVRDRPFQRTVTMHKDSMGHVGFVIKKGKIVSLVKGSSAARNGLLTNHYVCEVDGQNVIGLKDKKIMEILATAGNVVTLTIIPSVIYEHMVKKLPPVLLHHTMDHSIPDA

Variants of: B1
Conditions: with sdcb2_human SDCBP2, Q9H190

effect of a mutation on the interaction | Variant
disrupting interaction strength | C202G
